Earlier results on three compounds are cited in patent publication US20200085776A1, “Methods of Reducing C-Reactive Protein and/or Treating Cardiovascular Disease” (CARDAX, INC., priority 2018, published 2020).

The test system of one data set is vascular events. The note with it: 20 mg/D; patients who achieved a reduction in CRP<2.0; cited from earlier work.
The next data set deals with cardiovascular events. The note with it: 15-20 mg/week vs. placebo; cited from earlier work.
The target of the next data set is T1, IL-1β (Homo sapiens, UniProt P01584).
T1 construct: host or cells: human trial patients (endogenous IL-1β)
The note with it: cited from earlier work.

Where [1] appears, read: subjects with a reduction of CRP<2.0 mg/L, regardless of dose.

With `CC(C)c1nc(N(C)S(C)(=O)=O)nc(-c2ccc(F)cc2)c1/C=C/[C@@H](O)C[C@@H](O)CC(=O)O` [rosuvastatin], the “reduction in vascular events” value in the data set with vascular events is given as 62%.

Consider `CN(Cc1cnc2nc(N)nc(N)c2n1)c1ccc(C(=O)N[C@@H](CCC(=O)O)C(=O)O)cc1` [methotrexate], for which, in the data set with cardiovascular events, the “cardiovascular events compared to placebo” value is recorded as “did not result in fewer cardiovascular events” and the “effect on levels of IL-1β, IL-6, CRP” value was “did not reduce levels of IL-1β, IL-6, or CRP”.

For “canakinumab: monoclonal antibody that targets IL-1β (printed IL-113)”, the deaths from infection result in the data set with IL-1β (active treatment groups, mostly tuberculosis) is recorded as “more deaths from infection”. Moreover, in the data set with IL-1β (patients with active treatment), the “effect on CRP, IL-6 and lipids” value was “a reduction in CRP and IL-6, with no change in lipids”. In addition, in the data set with IL-1β (setting [1]), the “reduction in cardiovascular death and all-cause mortality” value was 31%; the “reduction in the primary end point (composite of myocardial infarction, stroke, or cardiovascular death)” value is on record as 25%.
